Experimental data reported in the RNAGym collection of RNA variant scans (doi:10.7554/elife.90254).

B1: LINE1-full (parent)
chain: UACGUAGGUGGUUUUCCCCUGAUAGUGCUAAGGGGGCCUGGAAGUUUGGACUGGGCAGAGCUCAACACAGCGUGGCAAAGUGGCUGUGGCUAGACUGCCUCUCUGGAUUCCUCGUCACUCAGCAGGGCAUCUCUGAGAGAAAUGCC

Variants of: B1
Assay: self-cleavage, relative activity (ratio to wild type); higher = more cleavage; in vitro, sequencing; the parent is a self-cleaving ribozyme

Variant	self-cleavage
UACGUAGGUGGUUUUCCCCUGAUAGUGCGAAGGGGGCCUGGAAGUUUGGACUGGGCGGAGCUCAACACAGCGUGGCAAAGUGGCUGUGGCUAGACUGCCUCUCUGGAUUCCUCGUCACUCAGCAGGGCAUCUCUGAGAGAAAUGCC [U29G A57G]	0.51
UACGUAGGUGGUUUUCCCCUGAUAGUGCUCAGGGGGCCUGGAAGUUUGGACUGGGCAGAGCUCAACACAGCGUGGCAAAGUGGCUGUGGCUAGACCGCCUCUCUGGAUUCCUCGUCACUCAGCAGGGCAUCUCUGAGAGAAAUGCC [A30C U96C]	0.39
UACGUAGGUGGUUUUCCCCUGAUAGUGCGAAGGGGGCCUGGAAGUUUGGACUGGGCAGAGCUCAACACAGCGUGGCAAAGUGGCUGUGGCUAGACUGCCUCUCAGGAUUCCUCGUCACUCAGCAGGGCAUCUCUGAGAGAAAUGCC [U29G U104A]	1.6
UACGUAGGUGGUUUUCCCCUGAUAGUGCGAAGGGGGCCUGGAAGUUUGGACUGGGCAGAGCUCAACACAGCGUGGCAAAGUGGCUGUGGCUAGACUGCCUCUCUGGAUUCCUCGUCACUCAGCGGGGCAUCUCUGAGAGAAAUGCC [U29G A124G]	0.44
UACGUAGGUGGUUUUCCCCUGAUAGUGCUCAGGGGGCCUGGAAGUUUGGACUGGGCAGAGCUCAACACAGCGUGGCAAAGUGGCUGUGGCUAGACUGCCUCUCUGGGUUCCUCGUCACUCAGCAGGGCAUCUCUGAGAGAAAUGCC [A30C A107G]	2.06
UACGUAGGUGGUUUUCCCCUGAUAGUGCUCAGGGGGCCUGGAAGUUUGGACUGGGCAGAGCUCAACACGGCGUGGCAAAGUGGCUGUGGCUAGACUGCCUCUCUGGAUUCCUCGUCACUCAGCAGGGCAUCUCUGAGAGAAAUGCC [A30C A69G]	0
UACGUAGGUGGUUUUCCCCUGAUAGUGCUGAGGGGGCCUGGCAGUUUGGACUGGGCAGAGCUCAACACAGCGUGGCAAAGUGGCUGUGGCUAGACUGCCUCUCUGGAUUCCUCGUCACUCAGCAGGGCAUCUCUGAGAGAAAUGCC [A30G A42C]	0.59
UACGUAGGUGGUUUUCCCCUGAUAGUGCUGAGGGGGCCUGGGAGUUUGGACUGGGCAGAGCUCAACACAGCGUGGCAAAGUGGCUGUGGCUAGACUGCCUCUCUGGAUUCCUCGUCACUCAGCAGGGCAUCUCUGAGAGAAAUGCC [A30G A42G]	0.9
UACGUAGGUGGUUUUCCCCUGAUAGUGCGAAGGGGGCCUGGAAGUUUGGACUGGGCAGAGCUCAACACAGCGUGGCAAAGUGGCUGUGGCUAGACUGCCUCUCUGGACUCCUCGUCACUCAGCAGGGCAUCUCUGAGAGAAAUGCC [U29G U108C]	0.54
UACGUAGGUGGUUUUCCCCUGAUAGUGCGAAGGGGGCCUGGAAGUUUGGACUGGGCAGAGCUCAACACAGCGUGGCAAAGUGGCUGUGGCUAGACUGCCUCUCUGGAUUCCUCGUCACUCAGCAGGGCAUCUCAGAGAGAAAUGCC [U29G U134A]	1.41
UACGUAGGUGGUUUUCCCCUGAUAGUGCCAAGGGGGCCUGGAAGUUUGGACUGGGCAGAGCUCAACACAGCGUGGCAAAGUGGCUGUGGCUAGACUGCCUCUCUGGAUUCCUCGUCACUCAGCAGGGCAUCCCUGAGAGAAAUGCC [U29C U132C]	1.46
UACGUAGGUGGUUUUCCCCUGAUAGUGCGAAGGGGGCCUGGAAGUUUGGACUGGGCAGAGCUCAACACAGCGUGGCAAAGUGGCUGUGGCUAGACUGCCUCUCUGGAUUCCUUGUCACUCAGCAGGGCAUCUCUGAGAGAAAUGCC [U29G C113U]	0.66
UACGUAGGUGGUUUUCCCCUGAUAGUGCGAAGGGGGCCUGGAAGUUUGGACUGGGCAGAGCUCAACACAGCGUGGCAAAGUGGCUGUGGCUAGACUGCCUCUCUGGAUUCCCCGUCACUCAGCAGGGCAUCUCUGAGAGAAAUGCC [U29G U112C]	1.36
UACGUAGGUGGUUUUCCCCUGAUAGUGCGAAGGGGGCCUGGAAGUUUGGACUGGGCAGAGCUCAACACAGCGUGGCAAAGUGGCUGUGGCUAGACUGCCUCUCUGGAUUCCUCGUCACUCAGCAGGGCAUCUCUGAGAGAAAUGCC [U29G]	1.1
UACGUAGGUGGUUUUCCCCUGAUAGUGCUCAGGGGGCCUGGAAGUUUGGACUGGGCGGAGCUCAACACAGCGUGGCAAAGUGGCUGUGGCUAGACUGCCUCUCUGGAUUCCUCGUCACUCAGCAGGGCAUCUCUGAGAGAAAUGCC [A30C A57G]	0.52
UACGUAGGUGGUUUUCCCCUGAUAGUGCCAAGGGGGCCUGGAAGUUUGGACUGGGCAGAGCUCAACACAGCGUGGCAAAGUGGCUGUGGCUAGACUGCCUCUCUGGAUUCCUCGUCACUCAGCAGGGCAUCUCUGAGAGAAAAGCC [U29C U143A]	1.17
UACGUAGGUGGUUUUCCCCUGAUAGUGCGAAGGGGGCCUGGAAGUUUGGACUGGGCAGAGCUCAACACAGCGUGGCAAAGUGGCUGUGGCUAGACUGCCUCUCUGGAUUCCUCGUCACUCAGCAGGGCAUCUCUGAGAGAUAUGCC [U29G A141U]	0.35
UACGUAGGUGGUUUUCCCCUGAUAGUGCUGAGGGGGCCUGGAUGUUUGGACUGGGCAGAGCUCAACACAGCGUGGCAAAGUGGCUGUGGCUAGACUGCCUCUCUGGAUUCCUCGUCACUCAGCAGGGCAUCUCUGAGAGAAAUGCC [A30G A43U]	1.5
UACGUAGGUGGUUUUCCCCUGAUAGUGCGAAGGGCGCCUGGAAGUUUGGACUGGGCAGAGCUCAACACAGCGUGGCAAAGUGGCUGUGGCUAGACUGCCUCUCUGGAUUCCUCGUCACUCAGCAGGGCAUCUCUGAGAGAAAUGCC [U29G G35C]	1.03
UACGUAGGUGGUUUUCCCCUGAUAGUGCGAAGGGGGCCUGGAAGUUAGGACUGGGCAGAGCUCAACACAGCGUGGCAAAGUGGCUGUGGCUAGACUGCCUCUCUGGAUUCCUCGUCACUCAGCAGGGCAUCUCUGAGAGAAAUGCC [U29G U47A]	1.41

Variant	self-cleavage
UACGUAGGUGGUUUUCCCCUGAUAGUGCUCAGGGGGCCUGGAAGUUUGGACUGGGCAGAGCUCAACACAGCGUGGCAAAGUGGCUGCGGCUAGACUGCCUCUCUGGAUUCCUCGUCACUCAGCAGGGCAUCUCUGAGAGAAAUGCC [A30C U87C]	0.64
UACGUAGGUGGUUUUCCCCUGAUAGUGCUCAGGGGGCCUGGAAGUUUGGACUGGGCAGAGCUCAACACAGCGUGGCAAAGUGGCUGUGGCUAGACUGCCUCUCUGGAUUCCUCGUCACUCGGCAGGGCAUCUCUGAGAGAAAUGCC [A30C A121G]	2.42
UACGUAGGUGGUUUUCCCCUGAUAGUGCUCAGGGGGCCUGGAAGUUUGGACUGGGCAGAGCUCAACACAGCGUGGCAAAGUGGCUGUGGCUAGACUGCCUCUCUGGAUUCCUCGUCACUCAGCAGGGCAUCUCUGAGAGAGAUGCC [A30C A141G]	1.38
UACGUAGGUGGUUUUCCCCUGAUAGUGCUCAGGGGGCCUGGAAGUUUGGACUGGGCAGAGCUCAACACAGCGUGGCAAAGUGGCUGUGGCUAGACUGCCUCUCUGGAUUCCUUGUCACUCAGCAGGGCAUCUCUGAGAGAAAUGCC [A30C C113U]	1.32
UACGUAGGUGGUUUUCCCCUGAUAGUGCCAAGGGGGCCUGGAAGUUUGGACUGGGCAGAGCUCAACACAGCGUGGCAAAGUGGCUGUGGCUAGACUGCCUCUCUGGAUUCCUCGUCACUCAGCAGGGCAUCUCAGAGAGAAAUGCC [U29C U134A]	0.89
UACGUAGGUGGUUUUCCCCUGAUAGUGCCAAGGGGGCCUGGAAGUUUGGACUGGGCAGAGCUCAACACAGCGUGGCAAAGUGGCUGUGGCUAGACUGCCUCUCUGGAUUCCUCGUCACUCAGCAGGGCAUCUCCGAGAGAAAUGCC [U29C U134C]	1.37
UACGUAGGUGGUUUUCCCCUGAUAGUGCGAAGGGGGCCUGGAAGUUUGGACUGGGCAGAGCUCAACACAGCGUGGCAAAGUGGCUGUGGCUAGACAGCCUCUCUGGAUUCCUCGUCACUCAGCAGGGCAUCUCUGAGAGAAAUGCC [U29G U96A]	0.06
UACGUAGGUGGUUUUCCCCUGAUAGUGCGAAGGGGGCCUGGAAGUUUGGACUGGGCAGAGCUCAACACAGCGUGGCAAAGUGGCUGUGGCUAGACCGCCUCUCUGGAUUCCUCGUCACUCAGCAGGGCAUCUCUGAGAGAAAUGCC [U29G U96C]	0.67
UACGUAGGUGGUUUUCCCCUGAUAGUGCUGAGGGGGCCUGGAAGUUUGGUCUGGGCAGAGCUCAACACAGCGUGGCAAAGUGGCUGUGGCUAGACUGCCUCUCUGGAUUCCUCGUCACUCAGCAGGGCAUCUCUGAGAGAAAUGCC [A30G A50U]	0.89
UACGUAGGUGGUUUUCCCCUGAUAGUGCUGAGGGGGCCUGGAAGUUUGGGCUGGGCAGAGCUCAACACAGCGUGGCAAAGUGGCUGUGGCUAGACUGCCUCUCUGGAUUCCUCGUCACUCAGCAGGGCAUCUCUGAGAGAAAUGCC [A30G A50G]	0.64
UACGUAGGUGGUUUUCCCCUGAUAGUGCGAAGGGGGCCUGGAAGUUUGGACUGGGCAGAGCUCAACACAGCGUGGCAAAGUGGCUGUGGCUAGACUGCCUCUCUGGAUUCCUCGUCACUCAGCAGGGCAUCUCUGAUAGAAAUGCC [U29G G137U]	1.04
UACGUAGGUGGUUUUCCCCUGAUAGUGCUCAGGGGGCCUGGAAGUUUGGACUGGGCAGAGCUCAACACAGCGUGGCAAAGUGGCUGUGGCUAGACUGCCUCUCUGGAUUCCCCGUCACUCAGCAGGGCAUCUCUGAGAGAAAUGCC [A30C U112C]	1.33
UACGUAGGUGGUUUUCCCCUGAUAGUGCUCAGGGGGCCUGGAAGUUUGGACUGGGCAGAGCUCAACACAGCGUGGCAAAGUGGCUGUGGCUAGACUGCCUCUCUGGAUUCCUCGUCACUCAGCAGGGCAUCUCUGAGAGGAAUGCC [A30C A140G]	1
UACGUAGGUGGUUUUCCCCUGAUAGUGCUCAGGGAGCCUGGAAGUUUGGACUGGGCAGAGCUCAACACAGCGUGGCAAAGUGGCUGUGGCUAGACUGCCUCUCUGGAUUCCUCGUCACUCAGCAGGGCAUCUCUGAGAGAAAUGCC [A30C G35A]	1.51
UACGUAGGUGGUUUUCCCCUGAUAGUGCUCAGGGGGCCUGGAAGUCUGGACUGGGCAGAGCUCAACACAGCGUGGCAAAGUGGCUGUGGCUAGACUGCCUCUCUGGAUUCCUCGUCACUCAGCAGGGCAUCUCUGAGAGAAAUGCC [A30C U46C]	1.48
UACGUAGGUGGUUUUCCCCUGAUAGUGCUCAGGGGGCCUGUAAGUUUGGACUGGGCAGAGCUCAACACAGCGUGGCAAAGUGGCUGUGGCUAGACUGCCUCUCUGGAUUCCUCGUCACUCAGCAGGGCAUCUCUGAGAGAAAUGCC [A30C G41U]	1.52
UACGUAGGUGGUUUUCCCCUGAUAGUGCGAAGGGGGCCUGGAAGUUUGGACUGGGCAGAGCUCAACACAGCGUGGCAAAGUGGCCGUGGCUAGACUGCCUCUCUGGAUUCCUCGUCACUCAGCAGGGCAUCUCUGAGAGAAAUGCC [U29G U85C]	0.46
UACGUAGGUGGUUUUCCCCUGAUAGUGCGAAGGGGGCCUGGAAGUUUGGACUGGGCAGAGCUCAACACAACGUGGCAAAGUGGCUGUGGCUAGACUGCCUCUCUGGAUUCCUCGUCACUCAGCAGGGCAUCUCUGAGAGAAAUGCC [U29G G70A]	0.27
UACGUAGGUGGUUUUCCCCUGAUAGUGCGAAGGGGGCCUGGAAGUUUGGACUGGGCAGAGCUCAACACAGCGUGGCAAAGUGGCUGUGGCUAGACUGCCUCUCUGGAUUCCUCGUCACUCAGCAGGGCACCUCUGAGAGAAAUGCC [U29G U130C]	0.63
